Test results taken from US20210107983A1 (Boehringer Ingelheim, published 2021).

T1: human B7H6 on HCT-15 cells (human, UniProt Q68D85 25-454)
T1 sequence (looked up): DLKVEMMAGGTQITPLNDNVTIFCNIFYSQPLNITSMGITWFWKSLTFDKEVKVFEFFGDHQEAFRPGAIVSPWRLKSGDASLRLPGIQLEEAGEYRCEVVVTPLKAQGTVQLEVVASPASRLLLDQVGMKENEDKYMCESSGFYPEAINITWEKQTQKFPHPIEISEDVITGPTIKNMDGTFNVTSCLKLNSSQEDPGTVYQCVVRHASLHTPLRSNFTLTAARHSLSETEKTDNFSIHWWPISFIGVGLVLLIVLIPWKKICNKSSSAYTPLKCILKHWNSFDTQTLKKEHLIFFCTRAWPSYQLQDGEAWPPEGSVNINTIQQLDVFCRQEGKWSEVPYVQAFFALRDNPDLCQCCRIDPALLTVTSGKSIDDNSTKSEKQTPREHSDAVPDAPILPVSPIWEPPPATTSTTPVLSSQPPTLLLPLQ


Columns and labels:
[1] = biological target: T1, human B7H6 on HCT-15 cells; assay: cell-based or functional assay
[2] = biological target: T2, Fc-His-tagged human B7H6 ECD (human); assay: ELISA, plate coated with Fc-His-tagged human B7H6 ECD, anti-human IgG F(ab')2-peroxidase, TMB
T2 construct: also called huB7H6-ECD-Fc-His; recombinant human B7H6 ECD
Method: (§1) To assess binding of B7H6/CD3 binding proteins to recombinant human Fc-His-tagged B7H6 ECD and human Fc-His-tagged Ala-mutated B7H6 extracellular proteins as described in Example 3, MediSorp™ plates (Nunc, 467320) were coated with […] recombinant proteins overnight at 4° C. The next day, plates were blocked with 0.5% bovine serum albumin (BSA) in phosphate buffered saline (PBS) for 1 hour at room temperature (RT). Subsequently plates were washed with […] containing 0.05% TWEEN®20 viscous liquid and B7H6/CD3 binding proteins were incubated at concentrations ranging from 0.00001 to 10 μg/ml. After an additional washing step, bound B7H6/CD3 binding proteins were detected by a peroxidase conjugated goat anti-human IgG F(ab′)₂-specific secondary antibody (Jackson Immunoresearch) and visualized by TMB substrate solution (Bender Med Systems).

[3] = biological target: T3, Fc-His-tagged human Ala-mutated B7H6 ECD (human); assay: ELISA, plate coated with Fc-His-tagged human Ala-mutated B7H6 ECD, anti-human IgG F(ab')2-peroxidase, TMB
T3 construct: also called huB7H6-Ala-ECD
Method: as §1

[4] = biological target: T1, human B7H6 on HCT-15 cells; assay: flow cytometry on HCT-15 cells, PE anti-human secondary antibody
Method: Binding of B7H6/CD3 binding proteins to HCT-15, a human (colo-rectal cancer) CRC cell line was tested by flow cytometry. In a previous experiment, it has been confirmed that HCT-15 cells expresses B7-H6 on the RNA levels as well as the protein level with approximately 8,000 B7-H6 receptors on the cell surface (data not shown). B7H6/CD3 binding proteins were produced, as described in Example 2. HCT-15 cells were stained with increasing concentrations of two-step purified B7H6/CD3 binding proteins in FACS buffer (PBS/0.5% BSA/0.05% sodium azide). Bound molecules were detected with PE-conjugated anti-human secondary antibody (Sigma-Aldrich, #P8047).

| Binder | EC50 [nM], 72 hour cytotoxicity assay, non-stimulated T-cells (Donor #1) as effector cells, HCT-15 cells as target cells [1] | EC50 (read off the curve) [2] | EC50 (read off the curve) [3] | binding result [3] | EC50 (read off the curve) [4] |
| --- | --- | --- | --- | --- | --- |
| B7H6#4/CD3#1 (bispecific antibody, human IgG1, kappa, lambda, L234A L235A, scFab-Fc heterodimer, one B7H6 chain and one CD3 chain) chain 1: DIVMTQSQKFMSTSVGDRVSVTCKASQNVGKYVAWYQQKPGQSPKALIYSASNRYDGVPDRFTGSGSGTDFTLTITNVQSEDLTEYFCQQYISYPLTFGAGTKLELKRTVAAPSVFIFPPSDEQLKSGTASVVCLLNNFYPREAKVQWKVDNALQSGNSQESVTEQDSKDSTYSLSSTLTLSKADYEKHKVYACEVTHQGLSSPVTKSFNRGECGGGGSEGKSSGSGSESKSTEGKSSGSGSESKSTGGGGSQVQLQQPGSVLVRPGASVRLSCKASGYTFTNYWMNWMKQRPGQGLEWIGGIYLNGDSTDYNEKFKGKATLTVDTSSSTTYMDLSSLTYEDSAVYYCTTRGDYFGDFWGQGTTLTVSSASTKGPSVFPLAPSSKSTSGGTAALGCLVKDYFPEPVTVSWNSGALTSGVHTFPAVLQSSGLYSLSSVVTVPSSSLGTQTYICNVNHKPSNTKVDKRVEPKSCDKTHTCPPCPAPEAAGGPSVFLFPPKPKDTLMISRTPEVTCVVVDVSHEDPEVKFNWYVDGVEVHNAKTKPREEQYNSTYRVVSVLTVLHQDWLNGKEYKCKVSNKALPAPIEKTISKAKGQPREPQVYTLPPSREEMTKNQVSLWCLVKGFYPSDIAVEWESNGQPENNYKTTPPVLDSDGSFFLYSKLTVDKSRWQQGNVFSCSVMHEALHNHYTQKSLSLSPG chain 2: EAVVTQEPSLTVSPGGTVTLTCRSSTGAVTTSNYANWVQEKPGQLPRGLIGGTNKRAPWVPARFSGSLLGGKAALTLSGAQPEDEAEYFCALWYSNLWVFGGGTKLTVLGQPKAAPSVTLFPPSSEELQANKATLVCLISDFYPGAVKVAWKADGSPVNTGVETTTPSKQSNNKYAASSYLSLTPEQWKSHRSYSCQVTHEGSTVEKTVAPAECSGGGGSEGKSSGSGSESKSTEGKSSGSGSESKSTGGGGSEVQLVESGGGLVQPGGSLKLSCAASGFTFNTYAMNWVRQAPGKGLEWVARIRSKYNNYATYYADSVKDRFTISRDDSKNTAYLQMNNLKTEDTAVYYCVRHGNFGNSYVSWFAYWGQGTLVTVSAASTKGPSVFPLAPSSKSTSGGTAALGCLVKDYFPEPVTVSWNSGALTSGVHTFPAVLQSSGLYSLSSVVTVPSSSLGTQTYICNVNHKPSNTKVDKRVEPKSCDKTHTCPPCPAPEAAGGPSVFLFPPKPKDTLMISRTPEVTCVVVDVSHEDPEVKFNWYVDGVEVHNAKTKPREEQYNSTYRVVSVLTVLHQDWLNGKEYKCKVSNKALPAPIEKTISKAKGQPREPQVYTLPPSREEMTKNQVSLSCAVKGFYPSDIAVEWESNGQPENNYKTTPPVLDSDGSFFLVSKLTVDKSRWQQGNVFSCSVMHEALHNRFTQKSLSLSPG | 0.23 nM | ~0.05 µg/mL | ~0.2 µg/mL | – | – |
| B7H6#6/CD3#1 (bispecific antibody, human IgG1, kappa, lambda, L234A L235A, scFab-Fc heterodimer, one B7H6 chain and one CD3 chain) chain 1: DIVMTQSPDSLPVSAGDRVTITCKASQSVSNDVVWYQQKPGQSPKLLMYSTSNRYIGVPDRFTGSGYGTDFTFTISTVQAEDLAVYFCQQDYSSPYTFGGGTKLEIKRTVAAPSVFIFPPSDEQLKSGTASVVCLLNNFYPREAKVQWKVDNALQSGNSQESVTEQDSKDSTYSLSSTLTLSKADYEKHKVYACEVTHQGLSSPVTKSFNRGECGGGGSEGKSSGSGSESKSTEGKSSGSGSESKSTGGGGSEVQLQQSGPELLKPGASVKISCKTSGYTFTDYTMHWVKQSHGKSLEWIGGINPNYDNTGYSEKFKDKATLTVDKSSSTAYMELRSLTSEDSAVYYCTRSGSRRSFYFDYWGQGTTLTVSSASTKGPSVFPLAPSSKSTSGGTAALGCLVKDYFPEPVTVSWNSGALTSGVHTFPAVLQSSGLYSLSSVVTVPSSSLGTQTYICNVNHKPSNTKVDKRVEPKSCDKTHTCPPCPAPEAAGGPSVFLFPPKPKDTLMISRTPEVTCVVVDVSHEDPEVKFNWYVDGVEVHNAKTKPREEQYNSTYRVVSVLTVLHQDWLNGKEYKCKVSNKALPAPIEKTISKAKGQPREPQVYTLPPSREEMTKNQVSLWCLVKGFYPSDIAVEWESNGQPENNYKTTPPVLDSDGSFFLYSKLTVDKSRWQQGNVFSCSVMHEALHNHYTQKSLSLSPG chain 2: EAVVTQEPSLTVSPGGTVTLTCRSSTGAVTTSNYANWVQEKPGQLPRGLIGGTNKRAPWVPARFSGSLLGGKAALTLSGAQPEDEAEYFCALWYSNLWVFGGGTKLTVLGQPKAAPSVTLFPPSSEELQANKATLVCLISDFYPGAVKVAWKADGSPVNTGVETTTPSKQSNNKYAASSYLSLTPEQWKSHRSYSCQVTHEGSTVEKTVAPAECSGGGGSEGKSSGSGSESKSTEGKSSGSGSESKSTGGGGSEVQLVESGGGLVQPGGSLKLSCAASGFTFNTYAMNWVRQAPGKGLEWVARIRSKYNNYATYYADSVKDRFTISRDDSKNTAYLQMNNLKTEDTAVYYCVRHGNFGNSYVSWFAYWGQGTLVTVSAASTKGPSVFPLAPSSKSTSGGTAALGCLVKDYFPEPVTVSWNSGALTSGVHTFPAVLQSSGLYSLSSVVTVPSSSLGTQTYICNVNHKPSNTKVDKRVEPKSCDKTHTCPPCPAPEAAGGPSVFLFPPKPKDTLMISRTPEVTCVVVDVSHEDPEVKFNWYVDGVEVHNAKTKPREEQYNSTYRVVSVLTVLHQDWLNGKEYKCKVSNKALPAPIEKTISKAKGQPREPQVYTLPPSREEMTKNQVSLSCAVKGFYPSDIAVEWESNGQPENNYKTTPPVLDSDGSFFLVSKLTVDKSRWQQGNVFSCSVMHEALHNRFTQKSLSLSPG | 0.46 nM | ~0.05 µg/mL | – | no binding (tested: 10 µg/ml) | – |
| B7H6#7/CD3#1 (bispecific antibody, human IgG1, kappa, lambda, L234A L235A, scFab-Fc heterodimer, one B7H6 chain and one CD3 chain) chain 1: DIQMTQSPSSVSASVGDRVTITCRASQGISSWLAWYQQKPGKAPNLLIYAASSLQSGVPSRFSGSGSGTDFTLTISSLQPEDFATYYCQQANSFPRTFGQGTKVEIKRTVAAPSVFIFPPSDEQLKSGTASVVCLLNNFYPREAKVQWKVDNALQSGNSQESVTEQDSKDSTYSLSSTLTLSKADYEKHKVYACEVTHQGLSSPVTKSFNRGECGGGGSEGKSSGSGSESKSTEGKSSGSGSESKSTGGGGSQVQLQESGPGLVKPSETLSLTYTVSGGSISYNYWSWIRQPPEKGLEWIGHIYYSGSTNYNPSLKSRVTISVDTSKNQFSLKLNSVTAADTAVYYCARVGTWGSFDDWGQGTLVTVSSASTKGPSVFPLAPSSKSTSGGTAALGCLVKDYFPEPVTVSWNSGALTSGVHTFPAVLQSSGLYSLSSVVTVPSSSLGTQTYICNVNHKPSNTKVDKRVEPKSCDKTHTCPPCPAPEAAGGPSVFLFPPKPKDTLMISRTPEVTCVVVDVSHEDPEVKFNWYVDGVEVHNAKTKPREEQYNSTYRVVSVLTVLHQDWLNGKEYKCKVSNKALPAPIEKTISKAKGQPREPQVYTLPPSREEMTKNQVSLWCLVKGFYPSDIAVEWESNGQPENNYKTTPPVLDSDGSFFLYSKLTVDKSRWQQGNVFSCSVMHEALHNHYTQKSLSLSPG chain 2: EAVVTQEPSLTVSPGGTVTLTCRSSTGAVTTSNYANWVQEKPGQLPRGLIGGTNKRAPWVPARFSGSLLGGKAALTLSGAQPEDEAEYFCALWYSNLWVFGGGTKLTVLGQPKAAPSVTLFPPSSEELQANKATLVCLISDFYPGAVKVAWKADGSPVNTGVETTTPSKQSNNKYAASSYLSLTPEQWKSHRSYSCQVTHEGSTVEKTVAPAECSGGGGSEGKSSGSGSESKSTEGKSSGSGSESKSTGGGGSEVQLVESGGGLVQPGGSLKLSCAASGFTFNTYAMNWVRQAPGKGLEWVARIRSKYNNYATYYADSVKDRFTISRDDSKNTAYLQMNNLKTEDTAVYYCVRHGNFGNSYVSWFAYWGQGTLVTVSAASTKGPSVFPLAPSSKSTSGGTAALGCLVKDYFPEPVTVSWNSGALTSGVHTFPAVLQSSGLYSLSSVVTVPSSSLGTQTYICNVNHKPSNTKVDKRVEPKSCDKTHTCPPCPAPEAAGGPSVFLFPPKPKDTLMISRTPEVTCVVVDVSHEDPEVKFNWYVDGVEVHNAKTKPREEQYNSTYRVVSVLTVLHQDWLNGKEYKCKVSNKALPAPIEKTISKAKGQPREPQVYTLPPSREEMTKNQVSLSCAVKGFYPSDIAVEWESNGQPENNYKTTPPVLDSDGSFFLVSKLTVDKSRWQQGNVFSCSVMHEALHNRFTQKSLSLSPG | 0.36 nM | ~0.05 µg/mL | – | – | ~1 nM |
